B1: human vitronectin (natural protein)
chain: DQESCKGRCTEGFNVDKKCQCDELCSYYQSCCTDYTAECKPQVTRGDVFTMPEDEYTVYDDGEEKNNATVHEQVGGPSLTSDLQAQSKGNPEQTPVLKPEEEAPAPEVGASKPEGIDSRPETLHPGRPQPPAEEELCSGKPFDAFTDLKNGSLFAFRGQYCYELDEKAVRPGYPKLIRDVWGIEGPIDAAFTRINCQGKTYLFKGSQYWRFEDGVLDPDYPRNISDGFDGIPDNVDAALALPAHSYSGRERVYFFKGKQYWEYQFQHQPSQEECEGSSLSAVFEHFAMMQRDSWEDIFELLFWGRTSAGTRQPQFISRDWHGVPGQVDAAMAGRIYISGMAPRPSLAKKQRFRHRNRKGYRSQRGHSRGRNQNSRRPSRATWLSLFSSEESNLGANNYDDYRMDWLVPATCEPIQSVFFFSGDKYYRVNLRTRRVDTVDPPYPRSIAQYWLGCPAPGHL
modifications: biotin (NHS-biotin) in the cell-binding assays of Figure 1; sulfo-SDAD on amino groups in the cross-linking
notes: Vitronectin, human; also called VTR; VTR-Bt; source: bought: R&D Systems
B2: C. albicans cytosolic enolase (enzyme, UniProt P30575 1-440, looked up)
chain: MSYATKIHARYVYDSRGNPTVEVDFTTDKGLFRSIVPSGASTGVHEALELRDGDKSKWLGKGVLKAVANVNDIIAPALIKAKIDVVDQAKIDEFLLSLDGTPNKSKLGANAILGVSLAAANAAAAAQGIPLYKHIANISNAKKGKFVLPVPFQNVLNGGSHAGGALAFQEFMIAPTGVSTFSEALRIGSEVYHNLKSLTKKKYGQSAGNVGDEGGVAPDIKTPKEALDLIMDAIDKAGYKGKVGIAMDVASSEFYKDGKYDLDFKNPESDPSKWLSGPQLADLYEQLISEYPIVSIEDPFAEDDWDAWVHFFERVGDKIQIVGDDLTVTNPTRIKTAIEKKAANALLLKVNQIGTLTESIQAANDSYAAGWGVMVSHRSGETEDTFIADLSVGLRSGQIKTGAPARSERLAKLNQILRIEEELGSEAIYAGKDFQKASQL
modifications: biotin (biotin-labeled enolase) in the microplate assays
notes: Enolase of Candida albicans (strain ATCC 10231), cytosolic form; identified by LC-MS/MS; also called C. albicans enolase, cytosol; source: purified from C. albicans ATCC 10231 cytosol (ammonium sulphate fractionation, MonoQ, MonoS)
B3: C. tropicalis cytosolic enolase (enzyme, UniProt C5MD83 1-440, looked up)
chain: MSYATKIHARTVYDSRGNPTVEVELTTDNGMFRSIVPSGASTGIHEALELRDGDKSKWLGKGVLKAVSNVNDIIAPALIDAKIDVNDQSKIDEFMIKLDGTPNKSKLGANAILGVSLAAANAAAANQGIPLYQHIANLSKSKKDKYVLPVPFQNVLNGGAHAGGDLAFQEFMIVPTGAESFSEAMRIDSEVYHTLKSLAKKKYGQSAGNVGDEGGVAPDLRTPEEALDLIVESIEQAGHTGKVKIAMDPASSEFFKDGKYDLDFKNPNPDPAKRLSGKELAELYERLINKYPIVLLEDPFAEDDWDAWVHFFKIVGDKVQIVADDLTVTNPIRIKKAIEKKCANALLVKVNQIGTLSESIVAANDAFGAGWGVMVSHRSGETEDTFIADLVVGLRAGQIKTGAPARSERLAKLNQILRIEESLGDDAIYAGKNFAVAHQL
modifications: biotin (biotin-labeled enolase) in the microplate assays
notes: Enolase of Candida tropicalis (strain T1, ATCC MYA-3404), cytosolic form; identified by LC-MS/MS; also called C. tropicalis enolase, cytosol; source: purified from C. tropicalis T1 (ATCC MYA-3404) cytosol (ammonium sulphate fractionation, MonoQ, MonoS)

Experiments:
[1] = target: T1, C. albicans cell surface-exposed enolase (C. albicans, UniProt P30575 1-440, biotin (biotin-labeled enolase) in the microplate ligand-binding assay); assay: SPR; BIACORE 3000; enolase amine-coupled to a CM5 chip (about 300 RU); human protein as analyte (40-750 nM or 75-750 nM), 30 µL/min, 25 °C, 10 mM HEPES, 150 mM NaCl, 0.005% P20, pH 7.4; 1:1 Langmuir global fit with baseline drift and local Rmax; regeneration 1 M NaCl; settings: both partners purified
T1 construct: Enolase of Candida albicans (strain ATCC 10231), form exposed at the cell surface; identified by LC-MS/MS, non-glycosylated, 47 kDa; Same protein as m2, isolated from another compartment; also called C. albicans enolase, cell wall; cell wall-associated enolase

human vitronectin = target: B1; assay: as above; settings: both partners purified

B1
Kd [1]: 31.1 nM | koff [1]: 0.00417 s⁻¹ | kon [1]: 134000 M⁻¹ s⁻¹

B2
Kd (human vitronectin): 55.3 nM | koff (human vitronectin): 0.00493 s⁻¹ | kon (human vitronectin): 89100 M⁻¹ s⁻¹

B3
Kd (human vitronectin): 683 nM | koff (human vitronectin): 0.00915 s⁻¹ | kon (human vitronectin): 13400 M⁻¹ s⁻¹

Reference: paper PMC7660097, “Structural Insights into the Interactions of Candidal Enolase with Human Vitronectin, Fibronectin and Plasminogen” (International Journal of Molecular Sciences, 2020)
